Data published in patent EP2974737A1.

B1: SEQ ID NO: 43 (VHH)
chain: DVQLVESGGGLVQPGGSLRLSCAASGFILDYYAIGWFRQAPGKEREGVLCIDASDDITYYADSVKGRFTISRDNSKNTVYLQMNSLRPEDTAVYYCATPIGLSSSCLLEYDYDYWGQGTLVTVSSGGGGSGGGSEVQLLESGGGLVQPGGSLRLSCAASGFTFRSFGMSWVRQAPGKGPEWVSSISGSGSDTLYADSVKGRFTISRDNSKNTLYLQMNSLRPEDTAVYYCTIGGSLSRSSQGTLVTVSSA
B2: SEQ ID NO: 49 (VHH)
VHH: EVQLLESGGGLVQPGGSLRLSCAASGLPFSTKSMGWFRQAPGKGREFVSRISPGGTSRYYGDFVKGRFTISRDNSKNTLYLQMNSLRAEDTAVYYCASGERSTYIGSNYYRTNEYDYWGQGTLVTVSS
B3: SEQ ID NO: 45 (VHH)
VHH: EVQLVESGGGLVQAGGSLRLSCAASRSIGRLDRMGWYRHRTGEPRELVATITGGSSINYGDFVKGRFTISIDNAKNTVYLQMNNLKPEDTAVYYCNFNKYVTSRDTWGQGTQVTVSS
B4: SEQ ID NO: 66 (VHH)
VHH: EVQLVESGGGSVQPGGSLRLSCAASRSIGRLDRMGWYRHRPGEPRELVATITGGSSINYGDSVKGRFTISIDNSKNTVYLQMNSLRPEDTAVYYCNFNKYVTSRDTWGQGTLVTVSS
B5: SEQ ID NO: 82 (VHH)
VHH: EVQLVESGGGLVQPGGSLRLSCAASRSIGRLDRMGWYRHRPGEPRELVATITGGSSINYGDSVKGRFTISIDNSKNTVYLQMNSLRAEDTAVYYCNFNKYVTSRDTWGQGTLVTVSS
B6: SEQ ID NO: 87 (VHH)
VHH: EVQLVESGGGSVQPGGSLRLSCAASRSIGRLDRMGWYRHRPGEPRELVATITGGSSINYGDSVKGRFTISIDNSKNTVYLQMNSLRPEDTAVYYCNFNKYVTSRDTWGQGTLVTVGG
B7: SEQ ID NO: 68 (VHH)
VHH: EVQLVESGGGLVQAGGSLRLSCAASRSIGRLDRMGWYRHRPGEPRELVATITGGSSINYGDSVKGRFTISIDNSKNTVYLQMNSLRPEDTAVYYCNFNKYVTSRDTWGQGTQVTVSS
B8: SEQ ID NO: 89 (VHH)
VHH: EVQLVESGGGSVQAGGSLRLSCAASRSIGRLDRMGWYRHRPGEPRELVATITGGSSINYGDSVKGRFTISIDNSKNTVYLQMNSLRPEDTAVYYCNFNKYVTSRDTWGQGTLVQVGG
B9: SEQ ID NO: 70 (VHH)
VHH: EVQLVESGGGLVQPGGSLRLSCAASRSIGRLDRMGWYRHRPGEPRELVATITGGSSINYGDSVKGRFTISIDNSKNTVYLQMNSLRPEDTAVYYCNFNKYVTSRDTWGQGTLVQVSS
B10: SEQ ID NO: 67 (VHH)
VHH: EVQLVESGGGLVQPGGSLRLSCAASRSIGRLDRMGWYRHRPGEPRELVATITGGSSINYGDSVKGRFTISIDNSKNTVYLQMNSLKPEDTAVYYCNFNKYVTSRDTWGQGTLVTVSS
B11: SEQ ID NO: 83 (VHH)
VHH: EVQLVESGGGLVQPGGSLRLSCAASRSIGRLDRMGWYRHRPGEPRELVATITGGSSINYGDSVKGRFTISIDNSKNTVYLQMNSLRPEDAAVYYCNFNKYVTSRDTWGQGTLVTVSS
B12: SEQ ID NO: 78 (VHH)
VHH: EVQLVESGGGLVRPGGSLRLSCAASRSIGRLDRMGWYRHRPGEPRELVATITGGSSINYGDSVKGRFTISIDNSKNTVYLQMNSLRPEDTAVYYCNFNKYVTSRDTWGQGTLVTVSS
B13: SEQ ID NO: 81 (VHH)
VHH: EVQLVESGGGVVQPGGSLRLSCAASRSIGRLDRMGWYRHRPGEPRELVATITGGSSINYGDSVKGRFTISIDNSKNTVYLQMNSLRPEDTAVYYCNFNKYVTSRDTWGQGTLVTVSS
B14: SEQ ID NO: 84 (VHH)
VHH: EVQLVESGGGLVQPGGSLRLSCAASRSIGRLDRMGWYRHRPGEPRELVATITGGSSINYGDSVKGRFTISIDNSKNTVYLQMNSLRPEDTAVYYCNFNKYVTSRDTWGQGTLVTVGS
B15: SEQ ID NO: 80 (VHH)
VHH: EVQLVESGGGLVQPGGSLRLSCAASRSIGRLDRMGWYRHRPGEPRELVATITGGSSINYGDSVKGRFTISIDNSKNTVYLQMNSLRPEDTAVYYCNFNKYVTSRDTWGQGTLVQVGG
B16: SEQ ID NO: 69 (VHH)
VHH: EVQLVESGGGLVQPGGSLRLSCAASRSIGRLDRMGWYRHRPGEPRELVATITGGSSINYGDSVKGRFTISIDNSKNTVYLQMNSLRPEDTAVYYCNFNKYVTSRDTWGQGTQVTVSS
B17: SEQ ID NO: 65 (VHH)
VHH: EVQLVESGGGLVQAGGSLRLSCAASRSIGRLDRMGWYRHRPGEPRELVATITGGSSINYGDSVKGRFTISIDNSKNTVYLQMNSLRPEDTAVYYCNFNKYVTSRDTWGQGTLVTVSS
B18: SEQ ID NO: 71 (VHH)
VHH: EVQLVESGGGLVQPGGSLRLSCAASRSIGRLDRMGWYRHRPGEPRELVATITGGSSINYGDSVKGRFTISIDNSKNTVYLQMNSLRPEDTAVYYCNFNKYVTSRDTWGQGTLVTVSG
B19: SEQ ID NO: 47 (VHH)
VHH: EVQLVESGGGLVQPGGSLRLSCAASGSVFKINVMAWYRQAPGKGRELVAGIISGGSTSYADSVKGRFTISRDNAKNTLYLQMNSLRPEDTAVYYCAFITTESDYDLGRRYWGQGTLVTVSS
B20: SEQ ID NO: 85 (VHH)
VHH: EVQLVESGGGSVQPGGSLRLSCAASRSIGRLDRMGWYRHRPGEPRELVATITGGSSINYGDSVKGRFTISIDNSKNTVYLQMNSLRPEDTAVYYCNFNKYVTSRDTWGQGTLVQVGG
B21: SEQ ID NO: 48 (VHH)
VHH: EVQLVESGGGLVQPGGSLRLSCIASGLPFSTKSMGWFRQAPGKEREFVARISPGGTSRYYGDFVKGRFAISRDNAKNTTWLQMNSLKAEDTAVYYCASGERSTYIGSNYYRTNEYDYWGTGTQVTVSS

molecular target: monoclonal antibody 21-4-3; test: SPR, captured 21-4-3, 500 nM; % of Fig. 9 reference
Sequence (VH, as listed by the source, form in doubt, chain 1 of 2): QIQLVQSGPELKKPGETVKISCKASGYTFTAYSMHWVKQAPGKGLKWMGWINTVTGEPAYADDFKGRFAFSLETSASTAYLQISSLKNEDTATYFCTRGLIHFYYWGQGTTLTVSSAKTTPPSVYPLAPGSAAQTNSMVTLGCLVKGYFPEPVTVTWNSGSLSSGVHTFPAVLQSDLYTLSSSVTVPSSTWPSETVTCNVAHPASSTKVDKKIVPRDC
Sequence (VL, as listed by the source, form in doubt, chain 2 of 2): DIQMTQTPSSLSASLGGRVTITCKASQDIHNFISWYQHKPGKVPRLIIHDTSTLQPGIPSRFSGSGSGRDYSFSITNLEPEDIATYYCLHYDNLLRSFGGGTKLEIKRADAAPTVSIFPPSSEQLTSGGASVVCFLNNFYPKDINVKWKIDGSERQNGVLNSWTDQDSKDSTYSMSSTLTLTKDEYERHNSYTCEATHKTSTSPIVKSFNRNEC

Point of comparison: B7, binding of 21-4-3, % of Reference Sequence 26%. Against it:
- B1 — lower, 3%
- B2 — lower, 4%
- B3 — lower, 22%
- B4 — higher, 48%
- B5 — higher, 56%
- B6 — higher, 41%
- B8 — lower, 2%
- B9 — higher, 106%
- B10 — higher, 101%
- B11 — higher, 79%
- B12 — lower, 1%
- B13 — higher, 75%
- B14 — higher, 91%
- B15 — higher, 51%
- B16 — higher, 106%
- B17 — lower, 23%
- B18 — higher, 44%
- B19 — lower, 4%
- B20 — higher, 32%
- B21 — lower, 3%
